Numbering of substitutions follows the chain as printed.

The target of assay [1] is T1, canine OX40L, full length membrane form, expressed on HEK293 cells (canine).
T1 chain: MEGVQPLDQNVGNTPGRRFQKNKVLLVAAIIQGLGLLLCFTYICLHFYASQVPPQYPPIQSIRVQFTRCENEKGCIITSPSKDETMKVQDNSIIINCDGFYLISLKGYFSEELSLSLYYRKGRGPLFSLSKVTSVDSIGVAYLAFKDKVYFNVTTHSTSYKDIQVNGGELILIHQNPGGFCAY
The assay is described as follows: cell-based or functional assay.

Assay [2] has as its target T1, canine OX40L, full length membrane …. Nature of the assay: flow cytometry. On the procedure: (§1) CHO supernatants diluted in FACS buffer (PBS containing 3% FBS) at 1, 5 or 10 μg/ml were used to screen for their binding capacity to canine OX40L using a cell-based assay. In brief, HEK293 or MEF cells (or any other commonly used cell lines) expressing canine OX40L at the cell surface are incubated with 100 μll of FACS buffer containing the candidate antibody for 30′ on ice. Cells are washed with 150 μl FACS buffer followed by centrifugation at 300 g for 3 min. The cell pellet is resuspended in FACS buffer containing a 1:1000 dilution of a fluorescently labelled secondary antibody recognising the canine Fc region of the test antibody for 30 min in the dark, followed by washing with 150 μl FACS buffer. Cells are resuspended in FACS buffer and flow cytometry performed using either a […] cytometer, followed by data analysis using FlowJo (FIG. 6 and Table 4).

For assay [3] the target is unchanged. Nature of the assay: flow cytometry, OX40L HEK minus WT HEK. On the procedure:
as §1

B1: PMX096 (antibody, V domains shown)
VH: EVQLVESGGDLVKPGGSLRLSCVASGFTFNTYHMNWVRQAPGKGLHWVAFINSGGSDTSYADTVQGRFTISRDYAKNTLYLQMNSLRAEDTAVYYCASGYIWTHFDYWGQGTLVTVSS
VL: SYVLTQLPSVSVTLRQTAHITCGGDIIGSKSVYWYQQKLGQAPVMIIYRDNNRPTGIPERFSGASSGNTATLTISGSLAEDEADYYCQVWDSRTQALFGGGTHLTVL
As for B1, in assay [1], the “% Signal Inhibition Average” value was 50.1%, the “% Signal Inhibition Rep1” value was 36.8%, the “% Signal Inhibition Rep2” value worked out at 59.1% and the “% Signal Inhibition Rep3” value was 54.4%.

B2: PMX094 (antibody, V domains shown)
VH: DIHLVESGGDLVRPGGSLRLSCVASGFTFSNLHMNWVRQAPGKGLQWVAFINSGGSGTTYADVVRGRFTISRDYAKNTLYLQMNSLRADDTAVYYCASGSIWTHFDYWGQGTLVTVSS
VL: SFVLTQLPSVSVTLRQTARITCGGDSIGSKSVYWYQQKLGQAPVLIIYRDSNRPTGIPERISGASSGNTATLTISGALAEDEADYYCQVWDSSNKAMFGGGTHLTVL
Regarding B2, in assay [1], the “% Signal Inhibition Average” value came to 45.4%, the “% Signal Inhibition Rep1” value is 38.6%, the “% Signal Inhibition Rep2” value was determined as 55% and the “% Signal Inhibition Rep3” value came out at 42.7%.

B3: PMX103 (antibody, V domains shown)
VH: B2 VH with D1E, I2V, H3Q, Y80N, N84T, D89E, S98T
VL: B2 VL
Take B3: in assay [1], the “% Signal Inhibition Average” value is 47.6%, the “% Signal Inhibition Rep1” value came to 57.3%, the “% Signal Inhibition Rep2” value was 26.3% and the “% Signal Inhibition Rep3” value is 59.1%.

B4: PMX100 (antibody, V domains shown)
VH: B2 VH with D1E, I2V, H3Q, N31S, L32Y, N35S, G57S, D89E
VL: B2 VL with K38R, I61F, S92N
In the case of B4, in assay [1], the “% Signal Inhibition Average” value stood at 32.4%, the “% Signal Inhibition Rep1” value was 49.1%, the “% Signal Inhibition Rep2” value stood at 28.1% and the “% Signal Inhibition Rep3” value worked out at 19.9%.

B5: PMX101 (antibody, V domains shown)
VH: B2 VH with D1E, I2V, H3Q, L32Y, N35S, G57S, T59S, V63A, D89E
VL: B2 VL with S26I, Y35F, V44I, S51D, I61F, T73I, D84H, N94S
With B5, in assay [1], the “% Signal Inhibition Average” value was found to be 52.4%, the “% Signal Inhibition Rep1” value was found to be 62.6%, the “% Signal Inhibition Rep2” value was 50.3% and the “% Signal Inhibition Rep3” value is 44.4%.

B6: PMX099 (antibody, V domains shown)
VH: B2 VH with D1E, I2V, H3Q, N31S, L32Y, G57S, D89E
VL: B2 VL with S29T, I61F
In the case of B6, in assay [1], the “% Signal Inhibition Average” value was found to be 24.8%, the “% Signal Inhibition Rep1” value stood at 25.1%, the “% Signal Inhibition Rep2” value amounted to 32.7% and the “% Signal Inhibition Rep3” value worked out at 16.4%.

B7: PMX095 (antibody, V domains shown)
VH: B2 VH with D1A, I2V, H3Q, N31S, L32Y, G57S, Y80F, D89E, S98I
VL: B2 VL with S26I, S31N, K38R, I47L, S51T, I61F, S92N
For B7, in assay [1], the “% Signal Inhibition Average” value was determined as 50.3%, the “% Signal Inhibition Rep1” value turned out to be 40.9%, the “% Signal Inhibition Rep2” value stood at 52.6% and the “% Signal Inhibition Rep3” value was found to be 57.3%.

B8: PMX062 (antibody)
heavy: EVQLVESGGDLVKPEGSLRLSCVVSGFTFSSYDMSWVRQAPGKGLQWVAYISFDGRSTSYTDVVKGRFTISRDNAKTTLYLQMNTLRIEDTAVYYCAKLSSSGWSMDYWGHGTSLFVSSASTTAPSVFPLAPSCGSTSGSTVALACLVSGYFPEPVTVSWNSGSLTSGVHTFPSVLQSSGLYSLSSMVTVPSSRWPSETFTCNVAHPASKTKVDKPVPKRENGRVPRPPDCPKCPAPESLGGPSVFIFPPKPKDTLLIARTPEVTCVVVDLGREDPEVQISWFVDGKQMQTAKTQPREEQFNGTYRVVSVLPIGHQDWLKGKQFTCKVNHIGLPSPIERTISKARGQAHQPSVYVLPPSREELSKNTVSLTCLIKDFFPPDIDVEWQSNGQQEPESKYRTTPPQLDEDGSYFLYSKLSVDKSRWQRGDTFICAVMHEALHNHYTQKSLSHSPGK
VL: SYVLTQLPSKNVTLKQPAHITCGGDNIGSKSVHWYQQKLGQAPVLIIYYDSSRPTGIPERFSGANSGNTATLTISGALAEDEADYYCQVWDSSASVFGGGTHLTVL
notes: also called PMX62
Consider B8, for which the “GEO mean OX40L expressing HEK” value in assay [2] came out at 2.81e+06. For the same molecule, in assay [1], the “% Signal Inhibition Average” value worked out at 15%, the “% Signal Inhibition Rep1” value was 4.15%, the “% Signal Inhibition Rep2” value was found to be 22.1% and the “% Signal Inhibition Rep3” value amounted to 18.7%. The same molecule gave a GEO mean difference in assay [3] of 2.78e+06.

B9: PMX089 (antibody, V domains shown)
VH: EVQLVESGGDLVKPGGSLRLSCVASGFTFNNFHMSWVRQAPGKGLQWVAFINSDGGNRNYADVVKGRVTISRDYAKNTLYLQINSLRAEDTAVYYCAGGSIWTHFDYWGQGTLVTVSS
VL: SYVLTQLPSMSVTLRQTARITCEGDIIASKRIYWYQQKLGQVPVLLIYADSSRPSGIPERFSGASSGNTATLTISGALAEDEADYYCQVWDNNANSVFGGGTHLTVL
On to B9, for which, in assay [1], the “% Signal Inhibition Average” value came to 47.4%, the “% Signal Inhibition Rep1” value was 43.3%, the “% Signal Inhibition Rep2” value turned out to be 49.7% and the “% Signal Inhibition Rep3” value was 49.1%.

B10: PMX092 (antibody, V domains shown)
VH: B9 VH with F32L, G56R, V63A, A97T
VL: B9 VL with I32V, L46F, S51N, N92S
Consider B10, for which, in assay [1], the “% Signal Inhibition Average” value turned out to be 34.7%, the “% Signal Inhibition Rep1” value stood at 33.3%, the “% Signal Inhibition Rep2” value worked out at 39.2% and the “% Signal Inhibition Rep3” value turned out to be 31.6%.

B11: PMX093 (antibody, V domains shown)
VH: B9 VH with N30S, N31S, F32Y, D54G, N57G, R58T, V63A, V68F, I83M, A97V
VL: B9 VL with I32V, A49G, S65N, N92S, N93G, A94T
In the case of B11, in assay [1], the “% Signal Inhibition Average” value was 5.46%, the “% Signal Inhibition Rep1” value turned out to be 0%, the “% Signal Inhibition Rep2” value is -0.585% and the “% Signal Inhibition Rep3” value came to 17%.

B12: PMX082 (antibody, V domains shown)
VH: EVQLVESGGDLVKPGGSLRLSCVASGFTFSSHHMTWVRQAPGKGLQWVAYIVSGGTNTNYADAVKGRFTISRDNAKNTLYLQMNSLRAEDTAVYYCASDLVLAVGAPFYWGQGTLVTVSS
VL: SYELTQPPSVNVTLRETAHITCGGDSIGRKYVQWIQQNPGQAPVVIIYKDINRPTGIPERFSGANSGNTATLTISGALAEDEADYYCQVGDSGTKAVFGEGTQLTVL
notes: also called PMX82
Consider B12, for which the “GEO mean OX40L expressing HEK” value in assay [2] is 544000. Moreover, in assay [1], the “% Signal Inhibition Average” value was found to be 72.3%, the “% Signal Inhibition Rep1” value amounted to 72.8%, the “% Signal Inhibition Rep2” value was determined as 71.9% and the “% Signal Inhibition Rep3” value is 72.1%. The GEO mean difference in assay [3] worked out at 531000.

B13: PMX084 (antibody, V domains shown)
VH: EVQLVESGGDLVKPEGSLRLSCVVSGFTFSNYDMSWVRQAPGKGLQWVAFISNDGRITGYTDAVEGRFTISRDNAKNTLYLQMNSLRTEDTAVYYCAKETSRWGFDYWGQGTLVTVSS
VL: SYVLTQLPSVSVTLRQTARITCGGDSIGSKNVYWHQQKLGQAPVLIIYDDSSRPSGIPERFSGANSGNTATLTISGALAEDEADYYCQVWDSSTSVFGGGTHLTVL
notes: also called PMX84
Take B13: the “GEO mean OX40L expressing HEK” value in assay [2] turned out to be 622000. For the same molecule, in assay [1], the “% Signal Inhibition Average” value was 60.7%, the “% Signal Inhibition Rep1” value was found to be 47.2%, the “% Signal Inhibition Rep2” value is 66.9% and the “% Signal Inhibition Rep3” value came to 68%. In assay [3], this molecule came in with a GEO mean difference of 610000.

Values taken from patent US20250340659A1 (PETMEDIX, published 2025).
